Experimental findings from patent US20250163162A1 (SYNTHEKINE, published 2025) are described below.

B1: DR444(DR236-DR234) (bispecific antibody)
chain: QVQLQESGGGSVQAGGSLRLSCAASRFTYSSYCMGWFRQAPGKEREGVASIDSDGSTSYTDSVKGRFTISKDNAKNTLYLQMNSLKPEDTAMYYCALDLMSTVVPGFCGFLLSAGMDYWGKGTQVTVSSGGGSQVQLQESGGGSVQAGGSLRLSCVASGYTFSSYCMGWFRQAPGKEREGVAALGGGSTYYADSVKGRFTISQDNAKNTLYLQMNSLKPEDTAMYYCAAAWVACLEFGGSWYDLARYKHWGQGTQVTVSSASHHHHHH
B2: DR449(DR237-DR233) (bispecific antibody)
chain: QVQLQESGGGSVQAGGSLRLSCAASGYTYSMYCMGWFRQAPGKEREGVAQINSDGSTSYADSVKGRFTISKDNAKNTLYLQMNSLKPEDTAMYYCAADSRVYGGSWYERLCGPYTYEYNYWGQGTQVTVSSGGGSQVQLQESGGGSVQAGGSLRLSCTASGFTFDDSDMGWYRQAPGNECELVSTISSDGSTYYADSVKGRFTISQDNAKNTVYLQMNSLKPEDTAVYYCAAEPRGYYSNYGGRRECNYWGQGTQVTVSSASHHHHHH
B3: DR392(DR229-DR236) (bispecific antibody)
chain: QVQLQESGGGLVQPGGSLRLSCTASGFSFSSYPMTWARQAPGKGLEWVSTIASDGGSTAYAASVEGRFTISRDNAKSTLYLQLNSLKTEDTAMYYCTKGYGDGTPAPGQGTQVTVSSGGGSQVQLQESGGGSVQAGGSLRLSCAASRFTYSSYCMGWFRQAPGKEREGVASIDSDGSTSYTDSVKGRFTISKDNAKNTLYLQMNSLKPEDTAMYYCALDLMSTVVPGFCGFLLSAGMDYWGKGTQVTVSSASHHHHHH
B4: DR438(DR235-DR234) (bispecific antibody)
chain: QVQLQESGGGSVQAGGSLRLSCAASRYLYSIDYMAWFRQSPGKEREPVAVIYTASGATFYPDSVKGRFTISQDNAKMTVYLQMNSLKSEDTAMYYCAAVRKTDSYLFDAQSFTYWGQGTQVTVSSGGGSQVQLQESGGGSVQAGGSLRLSCVASGYTFSSYCMGWFRQAPGKEREGVAALGGGSTYYADSVKGRFTISQDNAKNTLYLQMNSLKPEDTAMYYCAAAWVACLEFGGSWYDLARYKHWGQGTQVTVSSASHHHHHH
B5: DR466(DR240-DR232) (bispecific antibody)
chain: QVQLQESGGGSVQAGGSLRLSCGASGYTYSSYCMGWFRQVPGKEREGVAVIDSDGSTSYADSVKGRFTISKDNGKNTLYLQMNSLKPEDTAMYYCAADLGHYRPPCGVLYLGMDYWGKGTQVTVSSGGGSQVQLQESGGGSVQAGGSLRLSCVASGYTSCMGWFRQAPGKEREAVATIYTRGRSIYYADSVKGRFTISQDNAKNTLYLQMNSLKPEDIAMYSCAAGGYSWSAGCEFNYWGQGTQVTVSSASHHHHHH
B6: DR468(DR240-DR234) (bispecific antibody)
chain: QVQLQESGGGSVQAGGSLRLSCGASGYTYSSYCMGWFRQVPGKEREGVAVIDSDGSTSYADSVKGRFTISKDNGKNTLYLQMNSLKPEDTAMYYCAADLGHYRPPCGVLYLGMDYWGKGTQVTVSSGGGSQVQLQESGGGSVQAGGSLRLSCVASGYTFSSYCMGWFRQAPGKEREGVAALGGGSTYYADSVKGRFTISQDNAKNTLYLQMNSLKPEDTAMYYCAAAWVACLEFGGSWYDLARYKHWGQGTQVTVSSASHHHHHH
B7: DR442(DR236-DR232) (bispecific antibody)
chain: QVQLQESGGGSVQAGGSLRLSCAASRFTYSSYCMGWFRQAPGKEREGVASIDSDGSTSYTDSVKGRFTISKDNAKNTLYLQMNSLKPEDTAMYYCALDLMSTVVPGFCGFLLSAGMDYWGKGTQVTVSSGGGSQVQLQESGGGSVQAGGSLRLSCVASGYTSCMGWFRQAPGKEREAVATIYTRGRSIYYADSVKGRFTISQDNAKNTLYLQMNSLKPEDIAMYSCAAGGYSWSAGCEFNYWGQGTQVTVSSASHHHHHH
B8: DR474(DR241-DR234) (bispecific antibody)
chain: QVQLQESGGGSVQAGGSLRLSCAASGYSNCSYDMTWYRQAPGKEREFVSAIHSDGSTRYADSVKGRFFISQDNAKNTVYLQMNSLKPEDTAMYYCKTDPLHCRAHGGSWYSVRANYWGQGTQVTVSSGGGSQVQLQESGGGSVQAGGSLRLSCVASGYTFSSYCMGWFRQAPGKEREGVAALGGGSTYYADSVKGRFTISQDNAKNTLYLQMNSLKPEDTAMYYCAAAWVACLEFGGSWYDLARYKHWGQGTQVTVSSASHHHHHH

For the experiment, the target named is T1, IL10Rα/IL2Rγ receptor (human, UniProt Q13651 22-578; P31785 23-369).
T1 sequence (looked up) 1: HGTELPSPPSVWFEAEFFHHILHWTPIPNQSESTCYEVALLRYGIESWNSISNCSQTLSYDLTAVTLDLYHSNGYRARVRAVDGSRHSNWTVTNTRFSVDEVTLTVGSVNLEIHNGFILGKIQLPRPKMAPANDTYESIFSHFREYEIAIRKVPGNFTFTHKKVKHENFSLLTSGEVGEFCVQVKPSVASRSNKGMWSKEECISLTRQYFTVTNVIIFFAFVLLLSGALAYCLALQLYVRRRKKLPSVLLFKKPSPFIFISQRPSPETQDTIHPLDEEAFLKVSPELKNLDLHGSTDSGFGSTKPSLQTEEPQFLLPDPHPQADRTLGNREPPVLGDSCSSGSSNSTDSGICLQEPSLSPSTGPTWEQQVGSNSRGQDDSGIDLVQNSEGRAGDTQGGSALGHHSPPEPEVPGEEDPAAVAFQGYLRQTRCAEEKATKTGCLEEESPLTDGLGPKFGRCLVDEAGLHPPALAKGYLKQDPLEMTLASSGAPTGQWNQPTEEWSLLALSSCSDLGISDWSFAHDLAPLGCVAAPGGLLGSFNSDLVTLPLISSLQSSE
T1 sequence (looked up) 2: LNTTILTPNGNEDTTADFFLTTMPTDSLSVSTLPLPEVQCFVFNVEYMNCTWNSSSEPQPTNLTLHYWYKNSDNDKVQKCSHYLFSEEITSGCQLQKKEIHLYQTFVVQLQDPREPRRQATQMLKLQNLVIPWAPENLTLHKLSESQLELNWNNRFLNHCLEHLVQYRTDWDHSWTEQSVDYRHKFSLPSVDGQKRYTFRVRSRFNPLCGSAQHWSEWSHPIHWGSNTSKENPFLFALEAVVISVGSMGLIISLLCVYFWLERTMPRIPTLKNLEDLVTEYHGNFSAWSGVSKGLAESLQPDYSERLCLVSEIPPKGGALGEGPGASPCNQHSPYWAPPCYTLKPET
The experiment is described as follows: cell-based or functional assay.
With B1, the “pSTAT3 MFI, B cells, 100 nM (unstimulated 1045)” value (shortened to “pSTAT3 MFI, B cells, 100 nM”) amounted to 1070 MFI; the “pSTAT3 MFI, CD4+ T cells, 100 nM (unstimulated 1778)” value (“pSTAT3 MFI, CD4+ T cells, 100 nM” below) is 3700 MFI; the “pSTAT3 MFI, CD8+ T cells, 100 nM (unstimulated 1288)” value (shortened to “pSTAT3 MFI, CD8+ T cells, 100 nM”) came out at 2410 MFI; the “pSTAT3 MFI, Monocytes, 100 nM (unstimulated 1787)” value (“pSTAT3 MFI, Monocytes, 100 nM” for short) amounted to 1830 MFI. Besides, the “pSTAT3 MFI, NK cells, 100 nM (unstimulated 1149)” value (“pSTAT3 MFI, NK cells, 100 nM” for short) came to 1270 MFI.

Regarding B2, the “pSTAT3 MFI, B cells, 100 nM” value stood at 1090 MFI; the “pSTAT3 MFI, CD4+ T cells, 100 nM” value was found to be 2700 MFI; the “pSTAT3 MFI, CD8+ T cells, 100 nM” value stood at 1880 MFI; the “pSTAT3 MFI, Monocytes, 100 nM” value worked out at 1880 MFI. Besides, the “pSTAT3 MFI, NK cells, 100 nM” value is 1250 MFI.

Turning to B3, the “pSTAT3 MFI, B cells, 100 nM” value worked out at 1060 MFI; the “pSTAT3 MFI, CD4+ T cells, 100 nM” value was 3340 MFI; the “pSTAT3 MFI, CD8+ T cells, 100 nM” value came to 2390 MFI; the “pSTAT3 MFI, Monocytes, 100 nM” value was found to be 1890 MFI. The “pSTAT3 MFI, NK cells, 100 nM” value turned out to be 1280 MFI.

For B4, the “pSTAT3 MFI, B cells, 100 nM” value is 1050 MFI; the “pSTAT3 MFI, CD4+ T cells, 100 nM” value was determined as 2780 MFI; the “pSTAT3 MFI, CD8+ T cells, 100 nM” value was found to be 1830 MFI; the “pSTAT3 MFI, Monocytes, 100 nM” value worked out at 1810 MFI. Also, the “pSTAT3 MFI, NK cells, 100 nM” value was found to be 1170 MFI.

Turning to B5, the “pSTAT3 MFI, B cells, 100 nM” value stood at 1100 MFI; the “pSTAT3 MFI, CD4+ T cells, 100 nM” value turned out to be 3170 MFI; the “pSTAT3 MFI, CD8+ T cells, 100 nM” value was 2310 MFI; the “pSTAT3 MFI, Monocytes, 100 nM” value was 1870 MFI. For the same molecule, the “pSTAT3 MFI, NK cells, 100 nM” value was determined as 1280 MFI.

Consider B6, for which the “pSTAT3 MFI, B cells, 100 nM” value was found to be 1080 MFI; the “pSTAT3 MFI, CD4+ T cells, 100 nM” value worked out at 3520 MFI; the “pSTAT3 MFI, CD8+ T cells, 100 nM” value amounted to 2260 MFI; the “pSTAT3 MFI, Monocytes, 100 nM” value is 1860 MFI. Moreover, the “pSTAT3 MFI, NK cells, 100 nM” value worked out at 1290 MFI.

Take B7: the “pSTAT3 MFI, B cells, 100 nM” value came to 1050 MFI; the “pSTAT3 MFI, CD4+ T cells, 100 nM” value is 3110 MFI; the “pSTAT3 MFI, CD8+ T cells, 100 nM” value came to 2100 MFI; the “pSTAT3 MFI, Monocytes, 100 nM” value came to 1790 MFI. The “pSTAT3 MFI, NK cells, 100 nM” value was found to be 1220 MFI.

Consider B8, for which the “pSTAT3 MFI, B cells, 100 nM” value came to 1030 MFI; the “pSTAT3 MFI, CD4+ T cells, 100 nM” value is 3770 MFI; the “pSTAT3 MFI, CD8+ T cells, 100 nM” value was found to be 2460 MFI; the “pSTAT3 MFI, Monocytes, 100 nM” value was 2320 MFI. Besides, the “pSTAT3 MFI, NK cells, 100 nM” value was found to be 1230 MFI.
